Results from PMC3421056 (2012).

T1: Factor Xa (Homo sapiens, UniProt P00742)
T1 chain: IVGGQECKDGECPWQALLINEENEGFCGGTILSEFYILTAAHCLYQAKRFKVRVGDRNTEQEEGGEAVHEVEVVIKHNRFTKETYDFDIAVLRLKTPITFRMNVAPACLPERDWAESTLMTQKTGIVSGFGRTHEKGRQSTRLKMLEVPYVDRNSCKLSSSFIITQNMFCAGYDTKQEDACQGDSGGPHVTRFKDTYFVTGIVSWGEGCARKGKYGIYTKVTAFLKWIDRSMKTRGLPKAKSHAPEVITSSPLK

B1: Lufaxin 1-278 (protein)
chain: DGDEYFIGKYKEKDETLFFASYGLKRDPCQIVLGYKCSNNQTHFVLNFKTNKKSCISAIKLTSYPKINQNSDLTKNLYCQTGGIGTDNCKLVFKKRKRQIAANIEIYGIPAKKCSFKDRYIGADPLHVDSYGLPYQFDQEHGWNVERYNIFKDTRFSTEVFYHKNGLFNTQITYLAEEDSFSEAREITAKDIKKKFSIILPNEEYKRISFLDVYWFQETMRKKPKYPYIHYNGECSNENKTCELVFDTDELMTYALVKVFTNPESDGSRLKEEDLGRG
B2: Lufaxin 1-278 (protein)
chain: B1 chain
modifications: S2222 substrate-bound FXa

Experiments:
Factor Xa [1] = target: T1, Factor Xa; assay: SPR kinetics
Factor Xa [2] = target: T1, Factor Xa; assay: SPR steady-state
Factor Xa [3] = target: T1, Factor Xa; assay: ITC
Factor Xa [4] = target: T1, Factor Xa; assay: chromogenic substrate S2222 inhibition, apparent Ki
Factor Xa [5] = target: T1, Factor Xa; assay: chromogenic substrate S2222 inhibition, alphaKi

Row | Binder | Kd (Factor Xa [1]) [nM] | Kd (Factor Xa [2]) [nM] | Kd (Factor Xa [3]) [nM] | Ki (Factor Xa [4]) [nM] | Ki (Factor Xa [5]) [nM]
1 | B1 | 3.86 | 9.69 | 2.1 | 0.95 | –
2 | B2 | – | – | – | – | 2.21
